Measured values as given in US20100183625A1, “Treatment of Mucositis with Kallikrein Inhibitors” (Dyax Corp., priority 2009, published 2010).

Target: T1, pKal (Homo sapiens, UniProt P03952)
T1 construct: two disulfide linked polypeptides; a heavy chain of approximately 52 kDa and a catalytic domain of approximately 34 kDa; host or cells: human plasma
Experiment: Fab fragments (small scale) tested for inhibition against human pKal in an in vitro protease cleavage assay
Format: biochemical
Conditions: Table 9
Method: By DNA sequencing, we recovered 61 of the possible 80 antibodies (Table 9). These antibodies were produced as Fab fragments in small scale (˜20 μg) and tested for inhibition against human pKal in an in vitro protease cleavage assay using Pro-Phe-Arg-aminomethylcoumarin as the synthetic peptide substrate. […] Five antibodies were then expressed in 293T cells and purified by protein A sepharose chromatography. The antibodies were analyzed by SDS-PAGE to determine which of the inhibitory mutants are not cleaved by the host cell protease(s) (data not shown).

T1 sequence (P03952 391-638 limits assumed): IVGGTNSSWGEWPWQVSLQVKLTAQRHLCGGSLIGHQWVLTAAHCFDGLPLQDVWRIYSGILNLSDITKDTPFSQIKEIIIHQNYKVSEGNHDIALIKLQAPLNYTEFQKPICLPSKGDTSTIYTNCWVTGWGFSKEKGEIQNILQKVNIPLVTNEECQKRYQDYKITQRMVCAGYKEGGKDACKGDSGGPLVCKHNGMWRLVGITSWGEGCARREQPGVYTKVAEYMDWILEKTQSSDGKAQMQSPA
T1 sequence (P03952 20-390 partner limits assumed): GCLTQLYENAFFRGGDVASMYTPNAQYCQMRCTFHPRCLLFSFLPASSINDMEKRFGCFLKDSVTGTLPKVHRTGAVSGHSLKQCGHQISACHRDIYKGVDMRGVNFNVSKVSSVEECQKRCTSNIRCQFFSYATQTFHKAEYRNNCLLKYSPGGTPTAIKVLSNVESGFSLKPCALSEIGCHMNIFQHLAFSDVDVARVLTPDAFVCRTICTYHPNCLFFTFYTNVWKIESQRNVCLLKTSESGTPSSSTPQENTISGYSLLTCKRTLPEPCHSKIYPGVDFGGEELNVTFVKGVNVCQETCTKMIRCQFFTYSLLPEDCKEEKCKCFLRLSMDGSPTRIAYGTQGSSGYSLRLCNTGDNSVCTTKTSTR

| Inhibit as a Fab? | Molecule |
| --- | --- |
| No | X66-G08: single point mutation of M142-H08 (P1); HV-CDR3 GGLLLWFYELKSNYFDY (antibody, V domains shown) VL: QDIQMTQSPSSLSAFVGDRVTITCRASQPIDNYLNWYHQKPGKAPKLLIYAASRLQSGVPSRLSGSGFGTDFTLTISSLQPEDFGNYYCQQSYTVPYTFGGGTKVEIR VH: EVQLLESGGGLVQPGGSLRLSCAASGFTFSAYSMIWVRQAPGKGLEWVSYIRPSGGRTTYADSVKGRFTISRDNSKNTLYLQMNSLRAEDTAVYYCARGGLLLWFYELKSNYFDYWGQGTLVTVSSASTKGPSVFPLAPSSKS |
| Yes | X69-F09: single point mutation of M142-H08 (P1′); HV-CDR3 GGLLLWFRSLKSNYFDY (antibody, V domains shown) VL: QDIQMTQSPSSLSAFVGDRVTITCRASQPIDNYLNWYHQKPGKAPKLLIYAASRLQSGVPSRLSGSGFGTDFTLTISSLQPEDFGNYYCQQSYTVPYTFGGGTKVEIR VH: EVQLLESGGGLVQPGGSLRLSCAASGFTFSAYSMIWVRQAPSKGLEWVSYIRPSGGRTTYADSVKGRFTISRDNSKNTLYLQMNSLRAEDTAVYYCARGGLLLWFRSLKSNYFDYWGQGTLVTVSSASTKGPSVFPLAPSSKS |
| No | X69-A10: single point mutation of M142-H08 (P1′); HV-CDR3 GGLLLWFRPLKSNYFDY (antibody, V domains shown) VL: QDIQMTQSPSSLSAFVGDRVTITCRASQPIDNYLNWYHQKPGKAPKLLIYAASRLQSGVPSRLSGSGFGTDFTLTISSLQPEDFGNYYCQQSYTVPYTFGGGTKVEIR VH: EVQLLESGGGLVQPGGSLRLSCAASGFTFSAYSMIWVRQAPGKGLEWVSYIRPSGGRTTYADSVKGRFTISRDNSKNTLYLQMNSLRAEDTAVYYCARGGLLLWFRPLKSNYFDYWGQGTLVTVSSASTKGPSVFPLAPSSKS |
| No | X69-D08: single point mutation of M142-H08 (P1′); HV-CDR3 GGLLLWFRALKSNYFDY (antibody, V domains shown) VL: QDIQMTQSPSSLSAFVGDRVTITCRASQPIDNYLNWYHQKPGKAPKLLIYAASRLQSGVPSRLSGSGFGTDFTLTISSLQPEDFGNYYCQQSYTVPYTFGGGTKVEIR VH: EVQLLESGGGLVQPGGSLRLSCAASGFTFSAYSMIWVRQAPGKGLEWVSYIRPSGGRTTYADSVKGRFTISRDNSKNTLYLQMNSLRAEDTAVYYCARGGLLLWFRALKSNYFDYWGQGTLVTVSSASTKGPSVFPLAPSSKS |
| No | X69-A12: single point mutation of M142-H08 (P1′); HV-CDR3 GGLLLWFRKLKSNYFDY (antibody, V domains shown) VL: QDIQMTQSPSSLSAFVGDRVTITCRASQPIDNYLNWYHQKPGKAPKLLIYAASRLQSGVPSRLSGSGFGTDFTLTISSLQPEDFGNYYCQQSYTVPYTFGGGTKVEIR VH: EVQLLESGGGLVQPGGSLRLSCAASGFTFSAYSMIWVRQAPGKGLEWVSYIRPSGGRTTYADSVKGRFTISRDNSKNTLYLQMNSLRAEDTAVYYCARGGLLLWFRKLKSNYFDYWGQGTLVTVSSASTKGPSVFPLAPSSKS |
| Yes | X69-A09: single point mutation of M142-H08 (P1′); HV-CDR3 … (antibody, V domains shown) VL: QDIQMTQSPSSLSAFVGDRVTITCRASQPIDNYLNWYHQKPGKAPKLLIYAASRLQSGVPSRLSGSGFGTDFTLTISSLQPEDFGNYYCQQSYTVPYTFGGGTKVEIR VH: EVQLLESGGGLVQPGGSLRLSCAASGFTFSAYSMIWVRQAPGKGLEWVSYIRPSGGRTTYADSVKGRFTISRDNSKNTLYLQMNSLRAEDTAVYYCARGGLLLWFRSLKSNYFDYWGQGTLVTVSSASTKGPSVFPLAPSSKS |
| Yes | X69-F05: single point mutation of M142-H08 (P1′); HV-CDR3 GGLLLWFRLLKSNYFDY (antibody, V domains shown) VL: QDIQMTQSPSSLSAFVGDRVTITCRASQPIDNYLNWYHQKPGKAPKLLIYAASRLQSGVPSRLSGSGFGTDFTLTISSLQPEDFGNYYCQQSYTVPYTFGGGTKVEIR VH: EVQLLESGGGLVQPGGSLRLSCAASGFTFSAYSMIWVRQAPGKGLEWVSYIRPSGGRTTYADSVKGRFTISRDNSKNTLYLQMNSLRAEDTAVYYCARGGLLLWFRLLKSNYFDYWGQGTLVTVSSASTKGPSVFPLAPSSKS |
| Yes | X69-B08: single point mutation of M142-H08 (P1′); HV-CDR3 GGLLLWFRNLKSNYFDY (antibody, V domains shown) VL: QDIQMTQSPSSLSAFVGDRVTITCRASQPIDNYLNWYHQKPGKAPKLLIYAASRLQSGVPSRLSGSGFGTDFTLTISSLQPEDFGNYYCQQSYTVPYTFGGGTKVEIR VH: EVQLLESGGGLVQPGGSLRLSCAASGFTFSAYSMIWVRQAPGKGLEWVSYIRPSGGRTTYADSVKGRFTISRDNSKNTLYLQMNSLRAEDTAVYYCARGGLLLWFRNLKSNYFDYWGQGTLVTVSSASTKGPSVFPLAPSSKS |
| Yes | X69-D09: single point mutation of M142-H08 (P1′); HV-CDR3 GGLLLWFRGLKSNYFDY (antibody, V domains shown) VL: QDIQMTQSPSSLSAFVGDRVTITCRASQPIDNYLNWYHQKPGKAPKLLIYAASRLQSGVPSRLSGSGFGTDFTLTISSLQPEDFGNYYCQQSYTVPYTFGGGTKVEIR VH: EVQLLESGGGLVQPGGSLRLSCAASGFTFSAYSMIWVRQAPGKGLEWVSYIRPSGGRTTYADSVKGRFTISRDNSKNTLYLQMNSLRAEDTAVYYCARGGLLLWFRGLKSNYFDYWGQGTLVTVSSASTKGPSVFPLAPSSKS |
| No | X69-E05: single point mutation of M142-H08 (P1′); HV-CDR3 GGLLLWFRRLKSNYFDY (antibody, V domains shown) VL: QDIQMTQSPSSLSAFVGDRVTITCRASQPIDNYLNWYHQKPGKAPKLLIYAASRLQSGVPSRLSGSGFGTDFTLTISSLQPEDFGNYYCQQSYTVPYTFGGGTKVEIR VH: EVQLLESGGGLVQPGGSLRLSCAASGFTFSAYSMIWVRQAPGKGLEWVSYIRPSGGRTTYADSVKGRFTISRDNSKNTLYLQMNSLRAEDTAVYYCARGGLLLWFRRLKSNYFDYWGQGTLVTVSSASTKGPSVFPLAPSSKS |
| No | X69-D02: single point mutation of M142-H08 (P1′); HV-CDR3 GGLLLWFRHLKSNYFDY (antibody, V domains shown) VL: QDIQMTQSPSSLSAFVGDRVTITCRASQPIDNYLNWYHQKPGKAPKLLIYAASRLQSGVPSRLSGSGFGTDFTLTISSLQPEDFGNYYCQQSYTVPYTFGGGTKVEIR VH: EVQLLESGGGLVQPGGSLRLSCAASGFTFSAYSMIWVRQAPGKGLEWVSYIRPSGGRTTYADSVKGRFTISRDNSKNTLYLQMNSLRAEDTAVYYCARGGLLLWFRHLKSNYFDYWGQGTLVTVSSASTKGPSVFPLAPSSKS |
| No | X69-B02: single point mutation of M142-H08 (P1′); HV-CDR3 GGLLLWFRCLKSNYFDY (antibody, V domains shown) VL: QDIQMTQSPSSLSAFVGDRVTITCRASQPIDNYLNWYHQKPGKAPKLLIYAASRLQSGVPSRLSGSGFGTDFTLTISSLQPEDFGNYYCQQSYTVPYTFGGGTKVEIR VH: EVQLLESGGGLVQPGGSLRLSCAASGFTFSAYSMIWVRQAPGKGLEWVSYIRPSGGRTTYADSVKGRFTISRDNSKNTLYLQMNSLRAEDTAVYYCARGGLLLWFRCLKSNYFDYWGQGTLVTVSSASTKGPSVFPLAPSSKS |
